Results: patent US7223547B2, “Polypeptides having a functional domain of interest and methods of identifying and using same” (Cytogen Corporation, priority 1995, dated 2007)
* marks the point of attachment. Biotin = O=C1N[C@H]2[C@H](CS[C@H]2CCCCC(=O)*)N1

Columns and labels:
Test in all cases: plaque-lift screen of mouse 16 day embryo cDNA expression library with biotinylated peptide complexed to SA-AP
[1] = biological target: T1, SH3P5, mouse Cortactin (mouse, UniProt Q60598 1-546)
T1 construct: Protein encoded by a cDNA clone, on plaque-lift filters; not shown: N-terminal phi10 leader (T7-Tag) common to all lambda EXlox recombinants

[2] = biological target: T2, SH3P6, mouse MLN50 (mouse, UniProt Q61792 59-263)
T2 construct: Protein encoded by a cDNA clone, on plaque-lift filters; not shown: N-terminal phi10 leader (T7-Tag) common to all lambda EXlox recombinants
T2 sequence: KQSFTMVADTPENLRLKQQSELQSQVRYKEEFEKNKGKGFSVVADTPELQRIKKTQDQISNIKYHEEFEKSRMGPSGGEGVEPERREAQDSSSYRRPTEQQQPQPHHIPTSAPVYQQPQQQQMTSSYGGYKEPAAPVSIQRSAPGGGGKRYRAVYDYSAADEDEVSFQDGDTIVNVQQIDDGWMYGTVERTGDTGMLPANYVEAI

[3] = biological target: T3, SH3P7, a novel mouse gene (mouse, UniProt Q62418 1-436)
T3 construct: Protein encoded by a cDNA clone, on plaque-lift filters; not shown: N-terminal phi10 leader (T7-Tag) common to all lambda EXlox recombinants

[4] = biological target: T4, SH3P8, a novel mouse gene (mouse, UniProt Q62419 1-368)
T4 construct: Protein encoded by a cDNA clone, on plaque-lift filters; not shown: N-terminal phi10 leader (T7-Tag) common to all lambda EXlox recombinants

[5] = biological target: T5, SH3P9, a novel mouse gene (mouse, UniProt O08539 2-588)
T5 construct: Protein encoded by a cDNA clone, on plaque-lift filters; also called SH3P9 (mouse); not shown: N-terminal phi10 leader (T7-Tag) common to all lambda EXlox recombinants
T5 sequence: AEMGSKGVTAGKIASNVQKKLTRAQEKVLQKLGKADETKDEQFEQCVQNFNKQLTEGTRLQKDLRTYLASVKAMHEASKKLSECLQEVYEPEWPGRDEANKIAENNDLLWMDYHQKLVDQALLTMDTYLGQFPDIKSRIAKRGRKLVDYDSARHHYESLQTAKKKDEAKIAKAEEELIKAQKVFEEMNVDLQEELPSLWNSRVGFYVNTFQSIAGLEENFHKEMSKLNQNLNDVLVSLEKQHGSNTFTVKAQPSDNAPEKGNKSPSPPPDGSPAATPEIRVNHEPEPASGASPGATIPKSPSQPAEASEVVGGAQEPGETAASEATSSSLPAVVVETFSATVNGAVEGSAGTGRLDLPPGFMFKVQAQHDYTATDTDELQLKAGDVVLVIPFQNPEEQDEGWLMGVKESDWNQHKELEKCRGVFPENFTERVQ

[6] = biological target: T6, SH3P10, mouse HS1 (mouse, UniProt P49710 1-486)
T6 construct: Protein encoded by a cDNA clone, on plaque-lift filters; also called SPY75/HS1; not shown: N-terminal phi10 leader (T7-Tag) common to all lambda EXlox recombinants
T6 sequence: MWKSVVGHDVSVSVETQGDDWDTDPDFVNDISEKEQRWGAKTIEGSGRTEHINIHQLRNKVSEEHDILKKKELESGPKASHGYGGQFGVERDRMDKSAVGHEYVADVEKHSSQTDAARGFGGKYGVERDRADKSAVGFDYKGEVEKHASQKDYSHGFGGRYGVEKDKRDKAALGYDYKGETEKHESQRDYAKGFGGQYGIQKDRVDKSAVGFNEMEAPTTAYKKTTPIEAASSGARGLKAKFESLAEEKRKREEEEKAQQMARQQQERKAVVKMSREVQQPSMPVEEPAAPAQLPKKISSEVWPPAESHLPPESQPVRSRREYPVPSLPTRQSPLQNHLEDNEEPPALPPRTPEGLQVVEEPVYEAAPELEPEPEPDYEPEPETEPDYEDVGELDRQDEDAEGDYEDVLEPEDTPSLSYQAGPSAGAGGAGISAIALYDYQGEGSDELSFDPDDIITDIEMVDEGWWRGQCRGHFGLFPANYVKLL

[7] = biological target: T7, SH3P11, mouse Crk (mouse, UniProt Q64010 1-304)
T7 construct: Protein encoded by a cDNA clone, on plaque-lift filters; not shown: N-terminal phi10 leader (T7-Tag) common to all lambda EXlox recombinants

[8] = biological target: T8, SH3P12, a novel mouse gene (mouse, UniProt Q62417 1-1290)
T8 construct: Protein encoded by a cDNA clone, on plaque-lift filters; not shown: N-terminal phi10 leader (T7-Tag) common to all lambda EXlox recombinants
T8 sequence: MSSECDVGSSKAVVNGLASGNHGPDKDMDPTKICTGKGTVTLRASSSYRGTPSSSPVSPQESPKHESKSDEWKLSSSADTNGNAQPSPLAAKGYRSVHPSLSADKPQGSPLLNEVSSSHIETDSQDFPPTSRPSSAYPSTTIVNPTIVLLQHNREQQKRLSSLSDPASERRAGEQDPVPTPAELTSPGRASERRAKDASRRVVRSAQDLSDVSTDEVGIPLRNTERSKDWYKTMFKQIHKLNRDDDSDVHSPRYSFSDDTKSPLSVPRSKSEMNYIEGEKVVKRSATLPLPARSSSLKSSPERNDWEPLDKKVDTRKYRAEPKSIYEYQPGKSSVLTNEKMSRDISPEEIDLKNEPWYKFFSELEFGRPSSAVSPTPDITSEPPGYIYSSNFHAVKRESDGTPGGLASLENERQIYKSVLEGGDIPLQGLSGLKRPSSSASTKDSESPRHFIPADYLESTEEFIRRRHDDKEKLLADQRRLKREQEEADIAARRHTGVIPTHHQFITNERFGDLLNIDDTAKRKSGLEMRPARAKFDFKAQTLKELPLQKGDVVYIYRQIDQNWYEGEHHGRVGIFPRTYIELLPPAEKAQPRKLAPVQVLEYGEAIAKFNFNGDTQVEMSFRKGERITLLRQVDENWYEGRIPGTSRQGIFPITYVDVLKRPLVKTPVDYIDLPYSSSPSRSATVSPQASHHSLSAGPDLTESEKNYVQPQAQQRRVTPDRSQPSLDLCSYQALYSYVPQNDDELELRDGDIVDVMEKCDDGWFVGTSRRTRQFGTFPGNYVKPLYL

[9] = biological target: T9, SH3P13, a novel mouse gene (mouse, UniProt Q62421 1-347)
T9 construct: Protein encoded by a cDNA clone, on plaque-lift filters; not shown: N-terminal phi10 leader (T7-Tag) common to all lambda EXlox recombinants
T9 sequence: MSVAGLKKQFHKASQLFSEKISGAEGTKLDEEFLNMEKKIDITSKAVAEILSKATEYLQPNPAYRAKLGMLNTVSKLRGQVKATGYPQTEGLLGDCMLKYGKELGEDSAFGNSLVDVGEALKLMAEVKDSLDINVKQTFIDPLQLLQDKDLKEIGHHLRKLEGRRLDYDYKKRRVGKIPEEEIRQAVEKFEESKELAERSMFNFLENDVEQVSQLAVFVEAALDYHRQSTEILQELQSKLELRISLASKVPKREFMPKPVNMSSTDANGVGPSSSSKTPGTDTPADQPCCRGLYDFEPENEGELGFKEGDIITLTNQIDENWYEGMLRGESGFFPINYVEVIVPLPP

Measured: binding result

T7 sequence (Q64010 whole entry): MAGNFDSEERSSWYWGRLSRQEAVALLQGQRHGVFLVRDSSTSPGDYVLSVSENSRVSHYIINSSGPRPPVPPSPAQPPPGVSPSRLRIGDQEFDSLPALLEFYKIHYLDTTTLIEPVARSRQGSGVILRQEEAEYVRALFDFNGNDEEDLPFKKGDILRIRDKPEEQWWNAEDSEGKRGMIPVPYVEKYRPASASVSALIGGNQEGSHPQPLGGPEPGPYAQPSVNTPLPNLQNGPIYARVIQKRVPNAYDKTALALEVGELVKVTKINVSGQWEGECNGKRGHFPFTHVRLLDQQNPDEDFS
T3 sequence (Q62418 other isoform, or with tags, fused parts or gaps): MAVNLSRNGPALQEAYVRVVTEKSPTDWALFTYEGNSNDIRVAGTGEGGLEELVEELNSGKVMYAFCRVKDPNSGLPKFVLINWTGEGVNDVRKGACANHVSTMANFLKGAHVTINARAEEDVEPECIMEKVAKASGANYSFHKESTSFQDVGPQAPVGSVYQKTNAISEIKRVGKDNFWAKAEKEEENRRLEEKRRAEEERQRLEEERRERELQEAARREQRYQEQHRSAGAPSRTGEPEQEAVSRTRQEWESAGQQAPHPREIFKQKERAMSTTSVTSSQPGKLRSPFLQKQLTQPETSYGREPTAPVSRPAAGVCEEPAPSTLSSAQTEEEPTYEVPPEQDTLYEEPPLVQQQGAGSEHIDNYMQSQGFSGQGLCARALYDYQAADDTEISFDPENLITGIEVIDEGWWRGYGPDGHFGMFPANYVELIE
T1 sequence (Q60598 whole entry S298P): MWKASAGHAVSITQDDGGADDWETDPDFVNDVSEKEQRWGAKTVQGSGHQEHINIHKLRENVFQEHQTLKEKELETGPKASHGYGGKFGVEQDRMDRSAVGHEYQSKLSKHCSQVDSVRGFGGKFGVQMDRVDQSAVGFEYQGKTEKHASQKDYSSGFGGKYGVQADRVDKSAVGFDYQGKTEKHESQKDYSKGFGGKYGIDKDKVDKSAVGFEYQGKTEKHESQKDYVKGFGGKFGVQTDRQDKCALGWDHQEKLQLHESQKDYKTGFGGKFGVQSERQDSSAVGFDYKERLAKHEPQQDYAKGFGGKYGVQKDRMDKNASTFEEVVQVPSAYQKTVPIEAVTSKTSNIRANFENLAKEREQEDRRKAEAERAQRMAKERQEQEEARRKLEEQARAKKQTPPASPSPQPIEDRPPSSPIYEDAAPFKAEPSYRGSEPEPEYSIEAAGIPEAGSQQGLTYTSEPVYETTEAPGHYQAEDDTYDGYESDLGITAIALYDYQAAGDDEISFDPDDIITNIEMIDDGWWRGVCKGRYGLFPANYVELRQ
T4 sequence (Q62419 other isoform, or with tags, fused parts or gaps): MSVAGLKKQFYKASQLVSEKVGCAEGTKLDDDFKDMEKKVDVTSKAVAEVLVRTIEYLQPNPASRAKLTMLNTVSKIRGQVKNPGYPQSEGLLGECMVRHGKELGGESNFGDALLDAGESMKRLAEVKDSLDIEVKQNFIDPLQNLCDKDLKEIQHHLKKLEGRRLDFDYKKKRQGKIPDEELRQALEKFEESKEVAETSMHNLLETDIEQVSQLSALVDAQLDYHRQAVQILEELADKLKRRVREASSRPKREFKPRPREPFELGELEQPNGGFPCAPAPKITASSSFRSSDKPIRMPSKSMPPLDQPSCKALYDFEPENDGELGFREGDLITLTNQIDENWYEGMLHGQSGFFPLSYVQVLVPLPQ

B1: pCort (biotin-SGSGSRLTPQSKPPLPPKPSWVSR-NH2) (peptide)
peptide: Biotin-SGSGSRLTPQSKPPLPPKPSWVSR-NH2
SMILES: CC(C)C[C@H](NC(=O)[C@H](CCCNC(=N)N)NC(=O)[C@H](CO)NC(=O)CNC(=O)[C@H](CO)NC(=O)CNC(=O)[C@H](CO)NC(=O)CCCC[C@@H]1SC[C@@H]2NC(=O)N[C@@H]21)C(=O)N[C@H](C(=O)N1CCC[C@H]1C(=O)N[C@@H](CCC(N)=O)C(=O)N[C@@H](CO)C(=O)N[C@@H](CCCCN)C(=O)N1CCC[C@H]1C(=O)N1CCC[C@H]1C(=O)N[C@@H](CC(C)C)C(=O)N1CCC[C@H]1C(=O)N1CCC[C@H]1C(=O)N[C@@H](CCCCN)C(=O)N1CCC[C@H]1C(=O)N[C@@H](CO)C(=O)N[C@@H](Cc1c[nH]c2ccccc12)C(=O)N[C@H](C(=O)N[C@@H](CO)C(=O)N[C@@H](CCCNC(=N)N)C(N)=O)C(C)C)[C@@H](C)O
notes: Synthetic peptide with the Cortactin SH3 recognition unit motif; used complexed with streptavidin-alkaline phosphatase
binds: all assays above
